B1: L423I (protein)
chain: MAAAAAAMATATSATAAPPLRIRDAARRTRRRGHVRCAVASGAAEAPAAPGARVSADCVVVGGGISGLCTAQALATKHGVGDVLVTEARARPGGNITTAERAGEGYLWEEGPNSFQPSDPVLTMAVDSGLKDDLVFGDPNAPRFVLWEGKLRPVPSKPGDLPFFDLMSIPGKLRAGLGALGVRAPPPGREESVEDFVRRNLGAEVFERLIEPFCSGVYAGDPSKLSMKAAFGKVWRLEDTGGSIIGGTIKTIQERGKNPKPPRDPRLPTPKGQTVASFRKGLTMLPDAITSRLGSKVKLSWKLTSITKSDNKGYALVYETPEGVVSVQAKTVVMTIPSYVASDILRPLSSDAADALSIFYYPPVAAVTVSYPKEAIRKECLIDGELQGFGQLHPRSQGVETLGTIYSSSLFPNRAPAGRVLLINYIGGSTNTGIVSKTESELVEAVDRDLRKMLINPKAVDPLVLGVRVWPQAIPQFLIGHLDHLEAAKSALGKGGYDGLFLGGNYVAGVALGRCVEGAYESASQISDYLTKYAYK
modifications: Amino-acid sequence of PPO1 from rice mutant (OsPPO1 L423I)
B2: L424S/Y426V (protein)
chain: MVAATATATAMATAASPLLNGTRIPARLRHRGLSVRCAAVAGGAAEAPASTGARLSADCVVVGGGISGLCTAQALATRHGVGDVLVTEARARPGGNITTVERPEEGYLWEEGPNSFQPSDPVLTMAVDSGLKDDLVFGDPNAPRFVLWEGKLRPVPSKPADLPFFDLMSIPGKLRAGLGALGIRPPPPGREESVEEFVRRNLGAEVFERLIEPFCSGVYAGDPSKLSMKAAFGKVWRLEETGGSIIGGTIKTIQERSKNPKPPRDARLPKPKGQTVASFRKGLAMLPNAITSSLGSKVKLLWKLTSITKSDDKGYVLEYETPEGVVSVQAKSVIMTIPSYVASNILRPLSSDAADALSRFYYPPVAAVTVSYPKEAIRKECLIDGELQGFGQLHPRSQGVETLGTIYSSSLFPNRAPDGRVLLSNVIGGATNTGIVSKTESELVEAVDRDLRKMLINSTAVDPLVLGVRVWPQAIPQFLVGHLDLLEAAKAALDRGGYDGLFLGGNYVAGVALGRCVEGAYESASQISDFLTKYAYK
modifications: Amino-acid sequence of PPO1 form corn mutant (ZmPPO1 L424S/Y426V)
B3: L424V/Y426L (protein)
chain: MVAATATATAMATAASPLLNGTRIPARLRHRGLSVRCAAVAGGAAEAPASTGARLSADCVVVGGGISGLCTAQALATRHGVGDVLVTEARARPGGNITTVERPEEGYLWEEGPNSFQPSDPVLTMAVDSGLKDDLVFGDPNAPRFVLWEGKLRPVPSKPADLPFFDLMSIPGKLRAGLGALGIRPPPPGREESVEEFVRRNLGAEVFERLIEPFCSGVYAGDPSKLSMKAAFGKVWRLEETGGSIIGGTIKTIQERSKNPKPPRDARLPKPKGQTVASFRKGLAMLPNAITSSLGSKVKLLWKLTSITKSDDKGYVLEYETPEGVVSVQAKSVIMTIPSYVASNILRPLSSDAADALSRFYYPPVAAVTVSYPKEAIRKECLIDGELQGFGQLHPRSQGVETLGTIYSSSLFPNRAPDGRVLLVNLIGGATNTGIVSKTESELVEAVDRDLRKMLINSTAVDPLVLGVRVWPQAIPQFLVGHLDLLEAAKAALDRGGYDGLFLGGNYVAGVALGRCVEGAYESASQISDFLTKYAYK
modifications: Amino-acid sequence of PPO1 from corn mutant (ZmPPO1 L424V/Y426L)
B4: ZmPPO1 L424W/Y426L: Amino-acid sequence of PPO1 from corn mutant (protein)
chain: MVAATATATAMATAASPLLNGTRIPARLRHRGLSVRCAAVAGGAAEAPASTGARLSADCVVVGGGISGLCTAQALATRHGVGDVLVTEARARPGGNITTVERPEEGYLWEEGPNSFQPSDPVLTMAVDSGLKDDLVFGDPNAPRFVLWEGKLRPVPSKPADLPFFDLMSIPGKLRAGLGALGIRPPPPGREESVEEFVRRNLGAEVFERLIEPFCSGVYAGDPSKLSMKAAFGKVWRLEETGGSIIGGTIKTIQERSKNPKPPRDARLPKPKGQTVASFRKGLAMLPNAITSSLGSKVKLLWKLTSITKSDDKGYVLEYETPEGVVSVQAKSVIMTIPSYVASNILRPLSSDAADALSRFYYPPVAAVTVSYPKEAIRKECLIDGELQGFGQLHPRSQGVETLGTIYSSSLFPNRAPDGRVLLWNLIGGATNTGIVSKTESELVEAVDRDLRKMLINSTAVDPLVLGVRVWPQAIPQFLVGHLDLLEAAKAALDRGGYDGLFLGGNYVAGVALGRCVEGAYESASQISDFLTKYAYK
modifications: Amino-acid sequence of PPO1 from corn mutant (ZmPPO1 L424W/Y426L)
B5: OsPPO1 WT: Amino-acid sequence of PPO1 from wild-type rice (protein)
chain: MAAAAAAMATATSATAAPPLRIRDAARRTRRRGHVRCAVASGAAEAPAAPGARVSADCVVVGGGISGLCTAQALATKHGVGDVLVTEARARPGGNITTAERAGEGYLWEEGPNSFQPSDPVLTMAVDSGLKDDLVFGDPNAPRFVLWEGKLRPVPSKPGDLPFFDLMSIPGKLRAGLGALGVRAPPPGREESVEDFVRRNLGAEVFERLIEPFCSGVYAGDPSKLSMKAAFGKVWRLEDTGGSIIGGTIKTIQERGKNPKPPRDPRLPTPKGQTVASFRKGLTMLPDAITSRLGSKVKLSWKLTSITKSDNKGYALVYETPEGVVSVQAKTVVMTIPSYVASDILRPLSSDAADALSIFYYPPVAAVTVSYPKEAIRKECLIDGELQGFGQLHPRSQGVETLGTIYSSSLFPNRAPAGRVLLLNYIGGSTNTGIVSKTESELVEAVDRDLRKMLINPKAVDPLVLGVRVWPQAIPQFLIGHLDHLEAAKSALGKGGYDGLFLGGNYVAGVALGRCVEGAYESASQISDYLTKYAYK
modifications: Amino-acid sequence of PPO1 from wild-type rice (OsPPO1 WT)

Assays:
[1] = system: PPO-deficient Escherichia coli (ΔhemG); assay: PPO-deficient E. coli (ΔhemG) transformed by rice OsPPO1 mutant genes, growth on LB medium containing herbicide; details: 500 nM compound A
[2] = system: PPO-deficient Escherichia coli (ΔhemG); assay: PPO-deficient E. coli (ΔhemG) transformed by corn ZmPPO1 mutant genes, growth on LB medium containing compound A; type: cell-based; details: compound A 5 μM
Description: To verify whether the mutation of the PPO1-conserved protein motif LLLNYI in other plants could also confer resistance to herbicides, the mutation combination of leucine residues at the third position and tyrosine residues at the fifth position in the protein motif LLLNYI was carried out by using the same method as described in the above examples and screened by using of the LB medium containing herbicidal compound A, and the growth inhibition was observed.

[3] = system: Arabidopsis thaliana; assay: Herbicide resistance test of Arabidopsis thaliana seeds overexpressing crop PPO1 WT or mutant on MS medium; type: in vivo; details: overexpressed in Arabidopsis thaliana seed
Description: 1) Sowing: plump and vernalized wild-type Arabidopsis thaliana seeds were selected, treated with 75% alcohol for 1 minute, disinfected with 10% NaClO for 6 minutes, and washed with sterile water for 5 to 6 times. After the sterilization was completed, the seeds were placed on a MS medium plate for one week, then transplanted to sterilized nutrient soil (nutrient soil:vermiculite=1:1) and cultured in a greenhouse at (25±2) ° C. with a photoperiod of 16 h/8 h (light/dark).
4) Infestation of Arabidopsis thaliana inflorescences: the uninfected Arabidopsis thaliana with good growth state and lush inflorescences were selected for infection and their fruit pods were cut off from the plants by scissors prior to transformation. The Arabidopsis thaliana inflorescences were dipped in the prepared infection solution for 0.5 to 1 minute. Then the infected Arabidopsis thaliana seedlings were placed in dark and humid conditions for 24 hours. After one week, the infection was repeated.
After the transformation of dipped Arabidopsis thaliana inflorescences, Arabidopsis thaliana TO-generation seeds were collected and sowed on a resistant MS plate containing 30 mg/L hygromycin to screen positive plants.
The obtained overexpressed mutant and wild-type Arabidopsis thaliana seeds of different crops were tested for resistance on a MS medium (petri dish) containing different concentrations of PPO-inhibiting herbicidal compounds, as shown in FIG. 12-23.

[4] = system: Huaidao No. 5 rice seedlings; type: in vivo
Description: Rice seeds were peeled, washed with sterile water as many times as needed until the washing water became clear. Then the seeds were disinfected with 70% alcohol for 30 seconds and then with 5% sodium hypochlorite. The seeds were cultivated in a horizontal shaker for 20 minutes, disinfected with sodium hypochlorite and washed with sterile water for 5 times, placed on a sterile absorbent paper to air-dry the surface moisture of the seeds, and inoculated in an induction medium to cultivate the callus at 28° C. • 4) Infection of rice callus with Agrobacterium: the Huaidao No. 5 callus with a diameter of 3 mm was selected for sub-cultivation for 10 days and the callus was collected into a 50 ml centrifuge tube. […]

[5] = different concentrations of compound A
[6] = different concentrations of flumioxazin
[7] = different concentrations of saflufenacil

Row | Molecule | growth of ΔhemG transformant on plates containing compound A, compared with ZmPPO1-WT [2] | tolerance to compound A compared with wild-type Arabidopsis thaliana [3, 5] | tolerance to flumioxazin compared with wild-type Arabidopsis thaliana [3, 6] | tolerance to saflufenacil compared with wild-type Arabidopsis thaliana [3, 7] | also measured
1 | B1 |  |  |  |  | growth of ΔhemG transformant on LB medium containing compound A, compared with the wild type [1]: grew normally
2 | B2 | grew normally without an inhibition |  |  |  | 
3 | B3 | grew normally without an inhibition |  |  |  | 
4 | B4 | grew normally without an inhibition | certain level of tolerance | certain level of tolerance | certain level of tolerance | tolerance to compound A compared with the overexpressed wild-type PPO1 [3, 5]: much higher; tolerance to flumioxazin compared with the overexpressed wild-type PPO1 [3, 6]: much higher; tolerance to saflufenacil compared with the overexpressed wild-type PPO1 [3, 7]: much higher
5 | B5 |  | certain level of tolerance | certain level of tolerance | certain level of tolerance | tolerance/resistance to compound A compared with wild-type Huaidao No. 5 ([4]; T0 generation rice seedlings, compound A sprayed): certain level of tolerance/resistance; resistance compared with the wild-type control ([4]; compound A 135 g/ha and 270 g/ha): showed no difference

From patent US12655441B2, “PPO polypeptides tolerant to PPO-inhibiting herbicides and use thereof” (QINGDAO KINGAGROOT CHEMICAL COMPOUND CO., LTD., priority 2021, dated 2026)
